This experiment has as its target T1, His6-tagged AR domain (residues 51–288) of zDHHC17 (human, UniProt Q8IUH5 51-288).
T1 construct: ankyrin-repeat (AR) domain of human zDHHC17 (HIP14), residues 51-288; pET303CT-His plasmid; also called ARzD17-His; ARzD17; source: E. coli BL21(DE3)pLysS, purified; not shown: His6 (after a Leu-Glu linker), C-terminal, kept
T1 sequence (looked up): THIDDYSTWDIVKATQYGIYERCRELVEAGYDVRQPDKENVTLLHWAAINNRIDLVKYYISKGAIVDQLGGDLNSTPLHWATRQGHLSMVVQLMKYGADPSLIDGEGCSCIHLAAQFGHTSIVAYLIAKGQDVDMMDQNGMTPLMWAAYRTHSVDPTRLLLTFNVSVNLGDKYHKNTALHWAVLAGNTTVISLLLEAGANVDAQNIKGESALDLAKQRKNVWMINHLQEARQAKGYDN
The experiment is described as follows: peptide or protein array; far-Western on an array of 109 SPOT-synthesised 12-mer peptides on cellulose membrane; ARzD17-His (51–288) 500 nM in PBS-T overnight at 4 °C; detected with His6 tag antibody; signals normalised to the highest (1000), values <10 non-binders. The following applies: both partners purified.

B1: PDE4D (Pro-46) zDABM 12-mer peptide (peptide, UniProt Q08499 39-50, looked up)
peptide: HQYPLRQPQFRL
notes: 12-mer of human PDE4D with Pro-46 at position 7 and YP at positions 2-3; source: synthetic peptide, SPOT synthesis on cellulose membrane
On to B1, for which the binding result is “binds”.

B2: SLAIN1 (Pro-541) zDABM 12-mer peptide (peptide, UniProt Q8ND83 534-545, looked up)
peptide: PRSKIAQPVRSF
notes: also called SLAI1; SLAIN motif-containing protein 1; source: synthetic peptide, SPOT synthesis on cellulose membrane
B2: the binding result is given as “binds”.
